According to paper PMC4328881:

What was measured:
[1] = molecular target: 22 kDa (196 amino acids) OSM (human) (UniProt P13725); assay: SPR
[2] = molecular target: full-length 26 kDa (227 amino acids) OSM (human); assay: SPR

Sequence of fibronectin, P02751 32-2477 (natural protein; ; other documents disagree on this pair) (P02751 32-2477): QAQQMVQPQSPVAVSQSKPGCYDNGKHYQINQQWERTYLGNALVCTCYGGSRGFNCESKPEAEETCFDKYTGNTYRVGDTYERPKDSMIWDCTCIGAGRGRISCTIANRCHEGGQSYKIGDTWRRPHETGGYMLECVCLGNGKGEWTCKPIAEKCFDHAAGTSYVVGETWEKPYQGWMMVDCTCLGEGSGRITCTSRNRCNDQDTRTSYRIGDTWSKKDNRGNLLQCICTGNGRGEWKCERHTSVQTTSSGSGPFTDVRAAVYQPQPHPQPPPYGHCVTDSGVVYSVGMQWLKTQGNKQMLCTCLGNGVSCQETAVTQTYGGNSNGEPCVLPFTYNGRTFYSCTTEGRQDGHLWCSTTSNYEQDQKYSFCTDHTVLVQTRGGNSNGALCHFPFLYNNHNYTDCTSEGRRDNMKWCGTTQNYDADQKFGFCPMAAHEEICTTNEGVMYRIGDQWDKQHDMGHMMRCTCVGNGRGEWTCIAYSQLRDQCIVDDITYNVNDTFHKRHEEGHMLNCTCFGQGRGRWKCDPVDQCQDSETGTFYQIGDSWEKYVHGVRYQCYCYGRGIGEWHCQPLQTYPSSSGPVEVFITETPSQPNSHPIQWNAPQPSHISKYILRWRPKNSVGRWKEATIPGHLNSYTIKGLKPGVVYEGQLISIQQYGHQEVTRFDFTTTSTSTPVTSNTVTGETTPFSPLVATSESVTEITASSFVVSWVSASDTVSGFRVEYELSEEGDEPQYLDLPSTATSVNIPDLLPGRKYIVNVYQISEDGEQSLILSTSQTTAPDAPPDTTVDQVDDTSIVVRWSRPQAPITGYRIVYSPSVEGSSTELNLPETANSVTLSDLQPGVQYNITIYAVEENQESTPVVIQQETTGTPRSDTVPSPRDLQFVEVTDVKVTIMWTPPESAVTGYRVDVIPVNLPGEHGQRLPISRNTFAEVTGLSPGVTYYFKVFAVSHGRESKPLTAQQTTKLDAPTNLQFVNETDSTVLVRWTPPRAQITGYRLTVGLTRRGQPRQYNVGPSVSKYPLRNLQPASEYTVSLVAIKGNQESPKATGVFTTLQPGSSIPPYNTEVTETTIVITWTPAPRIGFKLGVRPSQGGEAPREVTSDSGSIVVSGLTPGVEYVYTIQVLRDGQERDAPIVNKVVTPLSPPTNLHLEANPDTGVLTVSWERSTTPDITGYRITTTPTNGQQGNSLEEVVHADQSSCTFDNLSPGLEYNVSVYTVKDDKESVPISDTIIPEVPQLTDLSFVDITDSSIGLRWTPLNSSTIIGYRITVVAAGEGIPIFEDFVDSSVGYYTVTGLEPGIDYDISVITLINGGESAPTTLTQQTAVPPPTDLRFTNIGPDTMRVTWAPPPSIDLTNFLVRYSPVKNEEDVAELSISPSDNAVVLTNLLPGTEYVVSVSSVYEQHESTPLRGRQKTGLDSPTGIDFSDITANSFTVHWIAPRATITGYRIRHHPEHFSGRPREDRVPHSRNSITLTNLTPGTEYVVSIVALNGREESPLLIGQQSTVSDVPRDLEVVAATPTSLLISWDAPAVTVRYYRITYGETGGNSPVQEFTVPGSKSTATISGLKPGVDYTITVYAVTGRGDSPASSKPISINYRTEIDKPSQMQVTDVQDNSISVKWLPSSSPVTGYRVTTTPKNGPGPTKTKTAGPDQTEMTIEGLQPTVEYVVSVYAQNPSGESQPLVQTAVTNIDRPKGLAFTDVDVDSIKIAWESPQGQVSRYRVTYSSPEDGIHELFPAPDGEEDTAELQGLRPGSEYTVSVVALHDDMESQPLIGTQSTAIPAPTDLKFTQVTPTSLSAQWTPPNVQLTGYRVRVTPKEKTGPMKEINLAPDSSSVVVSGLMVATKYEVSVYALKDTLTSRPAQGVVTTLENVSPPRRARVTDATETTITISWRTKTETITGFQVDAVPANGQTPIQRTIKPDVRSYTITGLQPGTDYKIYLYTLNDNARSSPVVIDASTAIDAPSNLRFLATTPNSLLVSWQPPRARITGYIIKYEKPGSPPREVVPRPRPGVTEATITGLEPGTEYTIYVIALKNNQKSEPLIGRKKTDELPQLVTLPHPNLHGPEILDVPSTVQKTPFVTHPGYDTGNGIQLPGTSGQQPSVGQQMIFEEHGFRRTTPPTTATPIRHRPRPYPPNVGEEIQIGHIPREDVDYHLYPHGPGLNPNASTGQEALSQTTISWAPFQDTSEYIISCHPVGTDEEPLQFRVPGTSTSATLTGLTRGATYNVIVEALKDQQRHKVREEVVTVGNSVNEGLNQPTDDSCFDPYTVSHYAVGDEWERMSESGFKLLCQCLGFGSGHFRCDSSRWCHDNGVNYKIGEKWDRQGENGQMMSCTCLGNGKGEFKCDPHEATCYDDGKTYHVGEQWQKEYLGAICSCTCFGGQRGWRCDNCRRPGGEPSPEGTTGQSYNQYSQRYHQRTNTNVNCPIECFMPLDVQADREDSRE
Sequence of 22 kDa (196 amino acids) OSM (human) (P13725 26-221): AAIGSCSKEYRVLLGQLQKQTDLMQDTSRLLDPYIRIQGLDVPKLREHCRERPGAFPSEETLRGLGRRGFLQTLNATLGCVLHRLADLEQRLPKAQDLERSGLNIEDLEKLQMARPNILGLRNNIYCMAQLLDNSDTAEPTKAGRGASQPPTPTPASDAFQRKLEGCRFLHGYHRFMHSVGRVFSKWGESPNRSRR

## laminin (complex)
[1]
  Kd: 936 nM
[2]
  Kd: 0.844 µM

## fibronectin, P02751 32-2477 (natural protein; ; other documents disagree on this pair)
[2]
  Kd: 1170 µM
